T1: human FcγRIIAH131 expressed on HEK293 cells (human, UniProt P12318 34-317)
T1 construct: whole, on cells
T1 sequence (looked up): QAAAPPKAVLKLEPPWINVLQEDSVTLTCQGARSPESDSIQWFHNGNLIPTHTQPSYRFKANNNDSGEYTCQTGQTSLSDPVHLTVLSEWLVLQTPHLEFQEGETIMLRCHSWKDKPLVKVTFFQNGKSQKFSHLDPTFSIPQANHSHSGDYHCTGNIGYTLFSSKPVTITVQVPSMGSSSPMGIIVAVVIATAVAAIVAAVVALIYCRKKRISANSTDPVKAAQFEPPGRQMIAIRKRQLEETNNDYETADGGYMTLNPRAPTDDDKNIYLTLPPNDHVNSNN

T2: human FcγRIIAR131 expressed on HEK293 cells (human, UniProt P12318 34-317)
T2 construct: whole, on cells
T2 sequence (looked up): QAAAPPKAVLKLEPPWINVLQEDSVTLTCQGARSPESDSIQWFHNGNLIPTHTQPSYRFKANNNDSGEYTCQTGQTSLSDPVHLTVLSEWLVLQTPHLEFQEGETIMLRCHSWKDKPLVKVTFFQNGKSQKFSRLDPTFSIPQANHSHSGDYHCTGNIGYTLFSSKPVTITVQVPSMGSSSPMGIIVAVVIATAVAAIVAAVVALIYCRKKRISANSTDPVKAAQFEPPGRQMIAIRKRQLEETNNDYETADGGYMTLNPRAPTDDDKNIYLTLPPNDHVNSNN

T3: human FcγRIIB expressed on HEK293 cells (human, UniProt P31994 43-310)
T3 construct: whole, on cells
T3 sequence (looked up): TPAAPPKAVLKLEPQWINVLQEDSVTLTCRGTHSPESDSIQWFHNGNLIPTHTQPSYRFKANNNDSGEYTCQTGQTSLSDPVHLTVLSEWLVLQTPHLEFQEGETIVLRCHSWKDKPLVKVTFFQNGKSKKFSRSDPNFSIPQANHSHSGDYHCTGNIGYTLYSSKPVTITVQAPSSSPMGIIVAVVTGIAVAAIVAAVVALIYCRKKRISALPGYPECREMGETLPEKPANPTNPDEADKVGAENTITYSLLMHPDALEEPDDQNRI


Experiments:
[1] = target: T4, human FcγRI expressed on HEK293 cells (human, UniProt P12314 16-374); test: FACS, 10 µg/mL mAb as immune complex with biotin-PD-L1/His and neutravidin on FcγR-expressing HEK293 cells
T4 construct: whole, on cells; Co-expressed with FcRγ subunit
From the text: (§1) Such bindings are thought to be more relevant under physiological condition, as the binding strength between monomeric γFc and most of the FcγRs is very weak. Human immune system also takes advantage of this mechanism to avoid non-specific activation of FcγRs by monomeric IgG which are present at high levels in serum.

[2] = target: T1, human FcγRIIAH131 expressed on HEK293 …; test: as above
From the text: as §1

[3] = target: T2, human FcγRIIAR131 expressed on HEK293 …; test: as above
From the text: as §1

[4] = target: T3, human FcγRIIB expressed on HEK293 cells; test: as above
From the text: as §1

[5] = target: T5, human FcγRIIIAF158 expressed on HEK293 cells (human, UniProt P08637 17-254); test: as above
T5 construct: whole, on cells; Co-expressed with FcRγ subunit
From the text: as §1

[6] = target: T6, human FcγRIIIAV158 expressed on cells (human, UniProt P08637 17-254); test: as above
T6 construct: whole, on cells; Co-expressed with FcRγ subunit; on HEK293 cells in the FACS assays, on NK92MI/CD16V cells in the ADCC assay; also called CD16 (V158 allele)
From the text: as §1

[7] = target: T7, human PD-L1, full length, expressed on cells (human, UniProt Q9NZQ7 19-290); test: FACS competition with PD-1/Fc on HEK293/PD-L1 cells
T7 construct: also called HEK293/PD-L1 cells; HEK293/OS8/PD-L1 cells

[8] = target: T4, human FcγRI expressed on HEK293 cells; test: FACS, monomeric mAb on FcγR-expressing HEK293 cells, goat anti-human IgG F(ab')2-Alexa Fluor 488 detection
Experimental: (§2) Bindings of humanized anti-PD-L1 in various IgG1 formats (wt, IgG1mc, IgG1mf, SEQ. NO. 27-29) to FcγRs were also determined by flow cytometry. In brief, a series of stable HEK293 transfectants expressing human FcγRs were established. These stable cell lines expressed FcγRI, FcγRIIAH131, FcγRIIAR131, FcγRIIB, FcγRIIIAF158 or FcγRIIIAV158, respectively. Multi-subunit FcγRs (i.e., FcγRI and FcγRIIIA) were co-expressed with FcRγ subunit.

[9] = target: T1, human FcγRIIAH131 expressed on HEK293 …; test: as above
Experimental: as §2

[10] = target: T2, human FcγRIIAR131 expressed on HEK293 …; test: as above
Experimental: as §2

[11] = target: T3, human FcγRIIB expressed on HEK293 cells; test: as above
Experimental: as §2

[12] = target: T5, human FcγRIIIAF158 expressed on HEK293 …; test: as above
Experimental: as §2

[13] = target: T6, human FcγRIIIAV158 expressed on cells; test: as above
Experimental: as §2

T5 sequence (P08637 17-254): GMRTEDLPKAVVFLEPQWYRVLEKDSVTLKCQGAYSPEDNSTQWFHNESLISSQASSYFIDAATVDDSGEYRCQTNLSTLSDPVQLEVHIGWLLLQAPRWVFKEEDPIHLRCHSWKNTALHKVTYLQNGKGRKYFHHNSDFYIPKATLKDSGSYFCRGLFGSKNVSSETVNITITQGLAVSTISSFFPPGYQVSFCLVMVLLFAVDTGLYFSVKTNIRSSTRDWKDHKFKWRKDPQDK
T4 sequence (P12314 16-374): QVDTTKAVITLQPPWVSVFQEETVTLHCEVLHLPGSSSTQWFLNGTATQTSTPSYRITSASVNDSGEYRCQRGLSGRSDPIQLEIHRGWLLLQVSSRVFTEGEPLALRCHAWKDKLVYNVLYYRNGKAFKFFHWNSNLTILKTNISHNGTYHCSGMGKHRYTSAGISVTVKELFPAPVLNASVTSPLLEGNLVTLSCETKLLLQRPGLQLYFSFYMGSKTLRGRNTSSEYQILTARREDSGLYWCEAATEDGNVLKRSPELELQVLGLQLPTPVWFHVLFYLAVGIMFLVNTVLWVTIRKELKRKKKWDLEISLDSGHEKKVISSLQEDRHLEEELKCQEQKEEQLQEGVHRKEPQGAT
T7 sequence (Q9NZQ7 19-290 limits assumed): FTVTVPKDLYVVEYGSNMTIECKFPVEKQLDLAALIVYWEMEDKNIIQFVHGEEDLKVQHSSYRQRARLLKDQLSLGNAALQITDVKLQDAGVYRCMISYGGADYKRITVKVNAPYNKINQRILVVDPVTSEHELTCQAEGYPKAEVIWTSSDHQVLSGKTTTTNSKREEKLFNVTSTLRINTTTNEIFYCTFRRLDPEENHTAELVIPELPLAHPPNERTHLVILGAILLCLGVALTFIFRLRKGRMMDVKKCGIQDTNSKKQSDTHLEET
T6 sequence (P08637 17-254 F176V limits assumed): as the sequence (P08637 17-254) above, with F160V counted along it

Binder | MFI [1] | MFI [2] | MFI [3] | MFI [4] | MFI [5] | MFI [6] | IC50 [7] | Max inhibition [7] | binding result [8] | binding result [9] | binding result [10] | binding result [11] | binding result [12] | binding result [13]
hu333-4B2-IgG1mc (antibody) heavy: EVQLVESGGGLVQPGGSLRLSCAVSGFSLTSYGVHWVRQAPGKGLEWVAVIWAGGSTNYADSVKGRFTISKDTSKNTVYLQMNSLRAEDTAVYYCAKPYGTSAMDYWGQGTLVTVSSASTKGPSVFPLAPSSKSTSGGTAALGCLVKDYFPEPVTVSWNSGALTSGVHTFPAVLQSSGLYSLSSVVTVPSSSLGTQTYICNVNHKPSNTKVDKKVEPKSCDKTHTCPPCPAPPAAAPSVFLFPPKPKDTLMISRTPEVTCVVVDVSHEDPEVKFNWYVDGVEVHNAKTKPREEQYNSTYRVVSVLTVLHQDWLNGKEYKCKVSNKALAAPIEKTISKAKGQPREPQVYTLPPSRDELTKNQVSLTCLVKGFYPSDIAVEWESNGQPENNYKTTPPVLDSDGSFFLYSKLTVDKSRWQQGNVFSCSVMHEALHNHYTQKSLSLSPGK light: DIQMTQSPSSLSASVGDRVTITCKASQDVGIVVAWYQQKPGKAPKLLIYWASIRHTGVPSRFSGSGSGTEFTLTISSLQPDDFATYYCQQYSNYPLYTFGQGTKVEIKRTVAAPSVFIFPPSDEQLKSGTASVVCLLNNFYPREAKVQWKVDNALQSGNSQESVTEQDSKDSTYSLSSTLTLSKADYEKHKVYACEVTHQGLSSPVTKSFNRGEC | 7.01 MFI | 8.09 MFI | 5.28 MFI | 5.03 MFI | 6.81 MFI | 4.89 MFI | 0.167 µg/mL | 100% | no binding | no binding | no binding | no binding | no binding | no binding
hu333-4A2-IgG1mc (antibody) heavy: EVQLVESGGGLVQPGGSLRLSCAVSGFSLTSYGVHWVRQAPGKGLEWVAVIWAGGSTNYVDSVKGRFTISKDNAKNTVYLQMNSLRAEDTAVYYCAKPYGTSAMDYWGQGTLVTVSSASTKGPSVFPLAPSSKSTSGGTAALGCLVKDYFPEPVTVSWNSGALTSGVHTFPAVLQSSGLYSLSSVVTVPSSSLGTQTYICNVNHKPSNTKVDKKVEPKSCDKTHTCPPCPAPPAAAPSVFLFPPKPKDTLMISRTPEVTCVVVDVSHEDPEVKFNWYVDGVEVHNAKTKPREEQYNSTYRVVSVLTVLHQDWLNGKEYKCKVSNKALAAPIEKTISKAKGQPREPQVYTLPPSRDELTKNQVSLTCLVKGFYPSDIAVEWESNGQPENNYKTTPPVLDSDGSFFLYSKLTVDKSRWQQGNVFSCSVMHEALHNHYTQKSLSLSPGK light: DIQMTQSPSSLSASVGDRVTITCKASQDVGIVVAWYQQKPGKAPKLLIYWASIRHTGVPSRFSGSGSGTEFTLTISSLQPDDFATYYCQQYSNYPLYTFGQGTKVEIKRTVAAPSVFIFPPSDEQLKSGTASVVCLLNNFYPREAKVQWKVDNALQSGNSQESVTEQDSKDSTYSLSSTLTLSKADYEKHKVYACEVTHQGLSSPVTKSFNRGEC | 7 MFI | 7.53 MFI | 5.38 MFI | 5.05 MFI | 6.44 MFI | 5.43 MFI | 0.172 µg/mL | 100% | no binding | no binding | no binding | no binding | no binding | no binding

Continued, values first:

MFI [1] | MFI [2] | MFI [3] | MFI [4] | MFI [5] | MFI [6] | IC50 [7] | Max inhibition [7] | binding result [8] | binding result [9] | binding result [10] | binding result [11] | binding result [12] | binding result [13] | Binder
3260 MFI | 599 MFI | 159 MFI | 539 MFI | 74.2 MFI | 309 MFI | – | – | – | – | – | – | – | – | hu333-4A2-IgG1wt (antibody, light chain constant region (kappa) not tied to an entry for this form) heavy: not shown VL: DIQMTQSPSSLSASVGDRVTITCKASQDVGIVVAWYQQKPGKAPKLLIYWASIRHTGVPSRFSGSGSGTEFTLTISSLQPDDFATYYCQQYSNYPLYTFGQGTKVEIK
7.11 MFI | 7.27 MFI | 4.92 MFI | 5 MFI | 6.76 MFI | 4.83 MFI | 0.174 µg/mL | 100% | no binding | no binding | no binding | no binding | no binding | no binding | hu333-4B2-IgG1mf (antibody) heavy: EVQLVESGGGLVQPGGSLRLSCAVSGFSLTSYGVHWVRQAPGKGLEWVAVIWAGGSTNYADSVKGRFTISKDTSKNTVYLQMNSLRAEDTAVYYCAKPYGTSAMDYWGQGTLVTVSSASTKGPSVFPLAPSSKSTSGGTAALGCLVKDYFPEPVTVSWNSGALTSGVHTFPAVLQSSGLYSLSSVVTVPSSSLGTQTYICNVNHKPSNTKVDKKVEPKSCDKTHTCPPCPAPPAAGPSVFLFPPKPKDTLMISRTPEVTCVVVDVSHEDPEVKFNWYVDGVEVHNAKTKPREEQYNSTYRVVSVLTVLHQDWLNGKEYKCKVSNKALAAPIEKTISKAKGQPREPQVYTLPPSRDELTKNQVSLTCLVKGFYPSDIAVEWESNGQPENNYKTTPPVLDSDGSFFLYSKLTVDKSRWQQGNVFSCSVMHEALHNHYTQKSLSLSPGK light: DIQMTQSPSSLSASVGDRVTITCKASQDVGIVVAWYQQKPGKAPKLLIYWASIRHTGVPSRFSGSGSGTEFTLTISSLQPDDFATYYCQQYSNYPLYTFGQGTKVEIKRTVAAPSVFIFPPSDEQLKSGTASVVCLLNNFYPREAKVQWKVDNALQSGNSQESVTEQDSKDSTYSLSSTLTLSKADYEKHKVYACEVTHQGLSSPVTKSFNRGEC

Reference: patent US20180215825A1 (BEIGENE, published 2018)
